What was measured:
human MuSK [1] = biological target: T1, human MuSK (human, UniProt O15146 24-495); assay: Biacore T200, off rate at pH 5.5 against pH 7.4
T1 construct: Recombinant protein coated on ELISA plates (R&D Systems cat. 10189-MK) or on the Biacore chip; also called human muscle-specific tyrosine protein kinase; full length human MuSK
T1 sequence: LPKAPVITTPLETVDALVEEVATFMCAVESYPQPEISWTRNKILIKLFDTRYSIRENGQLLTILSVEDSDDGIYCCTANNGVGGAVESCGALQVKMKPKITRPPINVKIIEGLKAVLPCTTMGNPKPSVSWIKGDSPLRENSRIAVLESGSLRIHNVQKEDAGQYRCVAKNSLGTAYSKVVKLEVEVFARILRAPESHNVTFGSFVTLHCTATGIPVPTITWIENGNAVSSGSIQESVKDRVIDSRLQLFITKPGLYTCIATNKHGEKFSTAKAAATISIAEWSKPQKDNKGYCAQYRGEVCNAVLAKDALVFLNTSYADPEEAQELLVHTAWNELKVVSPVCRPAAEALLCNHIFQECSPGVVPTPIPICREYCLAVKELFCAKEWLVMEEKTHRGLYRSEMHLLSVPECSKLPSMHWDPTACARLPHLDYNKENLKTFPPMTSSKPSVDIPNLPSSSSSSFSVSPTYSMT
Method in brief: (§1)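 Surface plasmon resonance was run with both human and mouse MuSK immobilized on the sensor chip. Fab association was always performed at pH 7.4 before the dissociation phase. Kinetic parameters were calculated from the binding curves.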

mouse MuSK [2] = biological target: T2, mouse MuSK (mouse, UniProt Q61006 22-494, limits assumed); assay: Biacore T200, off rate at pH 5.5 against pH 7.4
T2 construct: Coated on ELISA plates or on the Biacore chip; also called full length mouse MuSK; mouse MuSK (in house produced in HEK293 cells)
T2 sequence (looked up): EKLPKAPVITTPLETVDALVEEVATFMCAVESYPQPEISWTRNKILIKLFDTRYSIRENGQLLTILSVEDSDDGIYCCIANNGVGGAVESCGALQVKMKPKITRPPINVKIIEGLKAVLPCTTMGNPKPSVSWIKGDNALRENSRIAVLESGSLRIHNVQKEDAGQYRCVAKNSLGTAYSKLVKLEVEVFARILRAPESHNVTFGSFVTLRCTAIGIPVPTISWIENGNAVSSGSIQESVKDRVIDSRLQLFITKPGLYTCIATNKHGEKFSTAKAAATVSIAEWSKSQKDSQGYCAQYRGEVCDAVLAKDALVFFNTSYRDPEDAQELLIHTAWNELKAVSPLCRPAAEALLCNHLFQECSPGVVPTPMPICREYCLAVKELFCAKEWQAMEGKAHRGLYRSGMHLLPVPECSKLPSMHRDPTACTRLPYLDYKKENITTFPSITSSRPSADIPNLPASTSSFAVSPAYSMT
Method in brief: as §1

human MuSK [3] = biological target: T1, human MuSK; assay: Biacore T200, MuSK on chip (200RU), 22.2 nM Fab, dissociation pH 7.4
Method in brief: as §1

mouse MuSK [4] = biological target: T2, mouse MuSK; assay: as above
Method in brief: as §1

[5] = biological target: T3, mFz: Fz domain and C-terminal flanking sequence of mouse MuSK (D307 to T494) with C-terminal Avi- and … (mouse, UniProt Q61006 307-494, limits assumed, biotinylated in vitro using the BirA enzyme); assay: bead-binding assay, Fab format: biotinylated antigen on streptavidin beads, flow cytometry, 1:1 fit; average ± s.d., n=3
T3 construct: also called mouse Fz; not shown: Avi- and His6-tags
T3 sequence (looked up): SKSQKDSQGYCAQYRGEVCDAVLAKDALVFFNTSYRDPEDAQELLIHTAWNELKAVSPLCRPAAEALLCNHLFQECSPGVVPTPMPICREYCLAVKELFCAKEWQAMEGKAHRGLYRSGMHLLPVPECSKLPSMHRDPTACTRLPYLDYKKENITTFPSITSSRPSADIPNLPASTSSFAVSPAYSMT

[6] = biological target: T4, mECD: full-length extracellular region of mouse MuSK (E22 to T494) with C-terminal Avi- and His6-tags (mouse, UniProt Q61006 22-494, biotinylated in vitro using the BirA enzyme); assay: as above
T4 construct: range 22-494; also called mouse ECD; not shown: Avi- and His6-tags
T4 sequence (looked up): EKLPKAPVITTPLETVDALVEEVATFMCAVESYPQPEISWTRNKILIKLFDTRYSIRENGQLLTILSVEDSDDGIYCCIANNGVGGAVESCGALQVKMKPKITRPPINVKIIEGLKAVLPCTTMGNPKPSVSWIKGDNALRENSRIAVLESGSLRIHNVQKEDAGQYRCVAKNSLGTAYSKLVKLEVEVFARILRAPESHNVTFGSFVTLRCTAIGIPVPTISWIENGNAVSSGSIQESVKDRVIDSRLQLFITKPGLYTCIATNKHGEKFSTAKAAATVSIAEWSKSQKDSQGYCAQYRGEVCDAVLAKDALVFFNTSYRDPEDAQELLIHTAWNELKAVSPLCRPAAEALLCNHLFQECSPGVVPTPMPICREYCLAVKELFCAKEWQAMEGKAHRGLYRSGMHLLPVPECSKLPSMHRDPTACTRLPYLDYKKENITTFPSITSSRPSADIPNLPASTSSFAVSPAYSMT

[7] = biological target: T5, hFz: Fz domain and C-terminal flanking sequence of human MuSK (K314-T495) with C-terminal Avi- and His6-tags (human, UniProt O15146 314-495, biotinylated in vitro using the BirA enzyme); assay: as above
T5 construct: also called human Fz; not shown: Avi- and His6-tags
T5 sequence: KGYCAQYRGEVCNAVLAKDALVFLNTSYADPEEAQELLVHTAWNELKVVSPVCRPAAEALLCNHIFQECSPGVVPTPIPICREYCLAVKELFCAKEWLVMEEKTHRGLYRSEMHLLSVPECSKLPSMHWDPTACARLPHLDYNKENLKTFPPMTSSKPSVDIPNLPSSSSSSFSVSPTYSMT

B1: X2 Fab (Fab, V domains shown)
VH: EVQLVESGGGLVQPGGSLRLSCAASGFTVSSSSIHWVRQAPGKGLEWVASISSSYGSTSYADSVKGRFTISADTSKNTAYLQMNSLRAEDTAVYYCARSEGDRYVSGYMGMDYWGQGTLVTVSS
VL: DIQMTQSPSSLSASVGDRVTITCRASQSVSSAVAWYQQKPGKAPKLLIYSASSLYSGVPSRFSGSRSGTDFTLTISSLQPEDFATYYCQQSGVWLITFGQGTKVEIK
notes: Fab format
Ratio pH 5.5/7.4 of off rate (human MuSK [1]): 0.6
Ratio pH 5.5/7.4 of off rate (mouse MuSK [2]): 1
koff (human MuSK [3]): 0.00057 s⁻¹
koff (mouse MuSK [4]): 0.00053 s⁻¹
Kd [5]: 0.45 nM
Kd [6]: 0.7 nM
Kd [7]: 0.53 nM

B2: X3 Fab (Fab, V domains shown)
VH: EVQLVESGGGLVQPGGSLRLSCAASGFTISSSSIHWVRQAPGKGLEWVASISSSSGYTYYADSVKGRFTISADTSKNTAYLQMNSLRAEDTAVYYCARSWYEMWMSGYFGFDYWGQGTLVTVSS
VL: DIQMTQSPSSLSASVGDRVTITCRASQSVSSAVAWYQQKPGKAPKLLIYSASSLYSGVPSRFSGSRSGTDFTLTISSLQPEDFATYYCQQSSSSLITFGQGTKVEIK
notes: Fab format
Ratio pH 5.5/7.4 of off rate (human MuSK [1]): 3.5
Ratio pH 5.5/7.4 of off rate (mouse MuSK [2]): 4.4
koff (human MuSK [3]): 0.00063 s⁻¹
koff (mouse MuSK [4]): 0.00558 s⁻¹
Kd [5]: 0.29 nM
Kd [6]: 0.4 nM
Kd [7]: 0.11 nM
